The results in this text go back to US6084068.

The target in experiment [1] is RNA Polymerase II (rat).
For experiment [2], the target named is RNA Polymerase II (rat). The source holds these as a separate data set.

Read-outs that look alike come from different tables or passages of the source.

In experiment [1], Elongin A deletion mutant 1-730 returned a runoff transcription from the AdML promoter by RNA Polymerase II above 50%.

With Elongin A deletion mutant 1-680, in experiment [2], the runoff transcription from the AdML promoter by RNA Polymerase II turned out to be 50%.
